12 variants from publication PMC8495455, “Discovery of a transdermally deliverable pentapeptide for activating AdipoR1 to promote hair growth” (EMBO Molecular Medicine, 2021) can be followed below.

Sequences and labels used below:
B1: GST-fused P5 (GLYYF) [human] / Flag-fused N-terminal-truncated AdipoR1 (residues 89-375) [human] (parent complex)
chain 1: GLYYF
chain 2: EGRWRVIPYDVLPDWLKDNDYLLHGHRPPMPSFRACFKSIFRIHTETGNIWTHLLGFVLFLFLGILTMLRPNMYFMAPLQEKVVFGMFFLGAVLCLSFSWLFHTVYCHSEKVSRTFSKLDYSGIALLIMGSFVPWLYYSFYCSPQPRLIYLSIVCVLGISAIIVAQWDRFATPKHRQTRAGVFLGLGLSGVVPTMHFTIAEGFVKATTVGQMGWFFLMAVMYITGAGLYAARIPERFFPGKFDIWFQSHQIFHVLVVAAAFVHFYGVSNLQEFRYGLEGGCTDDTLL
B2: Flag-fused N-terminal-truncated AdipoR1 (residues 89-375) [human] / GST-fused P5 (GLYYF) [human] (parent complex)
chain 1: B1 chain 2
chain 2: GLYYF

In one experiment the parent is B1. Description: GST pulldown; n = 3 technical replicates/group; parent: 1; read off a plot.
Consider chain 1 Y4D, for which the ratio to parent is ~0.13.

For chain 1 Y4A, the ratio to parent was ~0.12.

The variants in another experiment derive from B2. The experiment is described as above.
In the case of chain 1 F197E, chain 1 E201A, the ratio to parent is ~0.45.

Take chain 1 F197E, chain 1 F273A: the ratio to parent was ~0.72.

Take chain 1 F197A, chain 1 R274A: the ratio to parent is ~0.75.

The next experiment covers variants of B2. The experiment is described as above. This is another data set of the same source.
Consider chain 1 Y138A, for which the ratio to parent was ~0.65.

On to chain 1 Y137A, for which the ratio to parent is ~0.77.

For chain 1 Y141A, the ratio to parent is ~1.

In the next experiment the parent is B2. The experiment is described as above. This is another data set of the same source.
On to chain 1 F273A, for which the ratio to parent is ~0.73.

Turning to chain 1 R274A, the ratio to parent was ~0.83.

With chain 1 F197E, the ratio to parent is ~0.3.

chain 1 F197A: the ratio to parent is ~0.57.
